Reference: patent US9482669B2, “Crystal structure of the NanR and ManNAc-6P complex, and uses thereof” (priority 2013, dated 2016)

These molecules were tested on PnanTp (assay: E. coli dual plasmid system (luciferase reporter fused to PnanTp)). Settings: BSE1201 host, arabinose, presence or absence of Neu5Ac.
Assay type: cell-based
Experimental: E. coli strains were co-transformed with a luciferase reporter plasmid (pBS0915) and one of the pNB-series of plasmids that express NanR. Cells were cultured overnight and then diluted into the appropriate fresh media (supplemented M9 in FIG. 3; LB in FIG. 4) containing arabinose (0.002%), and incubated at 37° C. until cells grew to early exponential phase. Relative luminescence unit (RLU) was calculated by dividing the luminescence by the A600, as described previously. For screening ligand-sensing residues, the BSE1201 strain (ΔaraBAD ΔnanE) was used as the host cell instead of DH5α to ensure that the arabinose was not used as a carbon source and that ManNAc-6P generated from Neu5Ac was accumulated in the cell.
To assess the importance of the interaction between ManNAc-6P and NanR to regulation of the nan genes, the residues involved in ligand-binding were mutated and the impact on NanR function was investigated using an E. coli dual plasmid system. Cells were cotransformed with plasmids containing a luciferase reporter gene fused to the NanR-binding nanT(PSL)AR promoter (PnanTp), and wild-type or mutant NanR, and then incubated in the presence of arabinose and the presence or absence of Neu5Ac.
The simplest helix-turn-helix (HTH)-containing DBD includes three core helices; the HTH domains can form tetra-helical bundle, winged helix, and ribbon-helix-helix type configurations. The DBD of NanR is composed of a six-helix bundle, which is not the archetypal conformation of HTH-containing domains; therefore, the recognition helix required for DNA-binding could not been determined. […] The importance of these residues to DNA-binding was examined using an E. coli dual plasmid system described in Example 2. The repressive effect of wild-type NanR on activity of PnanTp was abolished by the R57A, R57L, R60A, and R60L point mutations (FIG. 4c).

| Molecule | luciferase activity (PnanTp) after addition of Neu5Ac |
| --- | --- |
| S138A: modified NanR protein, Ser138 substituted with alanine (protein) MGSPKNLLVRLRSNMEPFSKKLRVVADYILENAHDVQFQTITDLARNTQTSEATVVRLCRDMGYKGYSDFRMALAVDLSQTESRQQNHIEGDICDVSAQSAVDSLQDTAKLIDRKSLARIVERVHQAEFIGCIGVGAASIVGRYLAYRLIRIGKKAIMFEDTHLAAMSASRSSQGDLWFAVSSSGSTKEVIHAAGLAYKRDIPVVSLTNINHSPLSSLSTEMLVAARPEGPLTGGAFASKVGALLLVDVLVNSLLESYPEYKDSVQETAEVVIPLMAN | unable to activate PnanTp |
| K240M: modified NanR protein, Lys240 substituted with methionine (protein) MGSPKNLLVRLRSNMEPFSKKLRVVADYILENAHDVQFQTITDLARNTQTSEATVVRLCRDMGYKGYSDFRMALAVDLSQTESRQQNHIEGDICDVSAQSAVDSLQDTAKLIDRKSLARIVERVHQAEFIGCIGVGASSIVGRYLAYRLIRIGKKAIMFEDTHLAAMSASRSSQGDLWFAVSSSGSTKEVIHAAGLAYKRDIPVVSLTNINHSPLSSLSTEMLVAARPEGPLTGGAFASMVGALLLVDVLVNSLLESYPEYKDSVQETAEVVIPLMAN | unable to activate PnanTp |
| E229L: modified NanR protein, Glu229 substituted with leucine (protein) MGSPKNLLVRLRSNMEPFSKKLRVVADYILENAHDVQFQTITDLARNTQTSEATVVRLCRDMGYKGYSDFRMALAVDLSQTESRQQNHIEGDICDVSAQSAVDSLQDTAKLIDRKSLARIVERVHQAEFIGCIGVGASSIVGRYLAYRLIRIGKKAIMFEDTHLAAMSASRSSQGDLWFAVSSSGSTKEVIHAAGLAYKRDIPVVSLTNINHSPLSSLSTEMLVAARPLGPLTGGAFASKVGALLLVDVLVNSLLESYPEYKDSVQETAEVVIPLMAN | unable to activate PnanTp |
| S182A: modified NanR protein, Ser182 substituted with alanine (protein) MGSPKNLLVRLRSNMEPFSKKLRVVADYILENAHDVQFQTITDLARNTQTSEATVVRLCRDMGYKGYSDFRMALAVDLSQTESRQQNHIEGDICDVSAQSAVDSLQDTAKLIDRKSLARIVERVHQAEFIGCIGVGASSIVGRYLAYRLIRIGKKAIMFEDTHLAAMSASRSSQGDLWFAVASSGSTKEVIHAAGLAYKRDIPVVSLTNINHSPLSSLSTEMLVAARPEGPLTGGAFASKVGALLLVDVLVNSLLESYPEYKDSVQETAEVVIPLMAN | unable to activate PnanTp |
| H163A: modified NanR protein, His163 substituted with alanine (protein) MGSPKNLLVRLRSNMEPFSKKLRVVADYILENAHDVQFQTITDLARNTQTSEATVVRLCRDMGYKGYSDFRMALAVDLSQTESRQQNHIEGDICDVSAQSAVDSLQDTAKLIDRKSLARIVERVHQAEFIGCIGVGASSIVGRYLAYRLIRIGKKAIMFEDTALAAMSASRSSQGDLWFAVSSSGSTKEVIHAAGLAYKRDIPVVSLTNINHSPLSSLSTEMLVAARPEGPLTGGAFASKVGALLLVDVLVNSLLESYPEYKDSVQETAEVVIPLMAN | unable to activate PnanTp |
| S184A: modified NanR protein, Ser184 substituted with alanine (protein) MGSPKNLLVRLRSNMEPFSKKLRVVADYILENAHDVQFQTITDLARNTQTSEATVVRLCRDMGYKGYSDFRMALAVDLSQTESRQQNHIEGDICDVSAQSAVDSLQDTAKLIDRKSLARIVERVHQAEFIGCIGVGASSIVGRYLAYRLIRIGKKAIMFEDTHLAAMSASRSSQGDLWFAVSSAGSTKEVIHAAGLAYKRDIPVVSLTNINHSPLSSLSTEMLVAARPEGPLTGGAFASKVGALLLVDVLVNSLLESYPEYKDSVQETAEVVIPLMAN | as active as wild-type NanR |
| H163L: modified NanR protein, His163 substituted with leucine (protein) MGSPKNLLVRLRSNMEPFSKKLRVVADYILENAHDVQFQTITDLARNTQTSEATVVRLCRDMGYKGYSDFRMALAVDLSQTESRQQNHIEGDICDVSAQSAVDSLQDTAKLIDRKSLARIVERVHQAEFIGCIGVGASSIVGRYLAYRLIRIGKKAIMFEDTLLAAMSASRSSQGDLWFAVSSSGSTKEVIHAAGLAYKRDIPVVSLTNINHSPLSSLSTEMLVAARPEGPLTGGAFASKVGALLLVDVLVNSLLESYPEYKDSVQETAEVVIPLMAN | unable to activate PnanTp |
| K240A: modified NanR protein, Lys240 substituted with alanine (protein) MGSPKNLLVRLRSNMEPFSKKLRVVADYILENAHDVQFQTITDLARNTQTSEATVVRLCRDMGYKGYSDFRMALAVDLSQTESRQQNHIEGDICDVSAQSAVDSLQDTAKLIDRKSLARIVERVHQAEFIGCIGVGASSIVGRYLAYRLIRIGKKAIMFEDTHLAAMSASRSSQGDLWFAVSSSGSTKEVIHAAGLAYKRDIPVVSLTNINHSPLSSLSTEMLVAARPEGPLTGGAFASAVGALLLVDVLVNSLLESYPEYKDSVQETAEVVIPLMAN | unable to activate PnanTp |

Same assay, conditions: point mutations in DBD

| Molecule | repressive effect of NanR on activity of PnanTp |
| --- | --- |
| R60L: modified NanR protein, Arg60 substituted with leucine (protein) MGSPKNLLVRLRSNMEPFSKKLRVVADYILENAHDVQFQTITDLARNTQTSEATVVRLCLDMGYKGYSDFRMALAVDLSQTESRQQNHIEGDICDVSAQSAVDSLQDTAKLIDRKSLARIVERVHQAEFIGCIGVGASSIVGRYLAYRLIRIGKKAIMFEDTHLAAMSASRSSQGDLWFAVSSSGSTKEVIHAAGLAYKRDIPVVSLTNINHSPLSSLSTEMLVAARPEGPLTGGAFASKVGALLLVDVLVNSLLESYPEYKDSVQETAEVVIPLMAN | abolished |
| R57L: modified NanR protein, Arg57 substituted with leucine (protein) MGSPKNLLVRLRSNMEPFSKKLRVVADYILENAHDVQFQTITDLARNTQTSEATVVLLCRDMGYKGYSDFRMALAVDLSQTESRQQNHIEGDICDVSAQSAVDSLQDTAKLIDRKSLARIVERVHQAEFIGCIGVGASSIVGRYLAYRLIRIGKKAIMFEDTHLAAMSASRSSQGDLWFAVSSSGSTKEVIHAAGLAYKRDIPVVSLTNINHSPLSSLSTEMLVAARPEGPLTGGAFASKVGALLLVDVLVNSLLESYPEYKDSVQETAEVVIPLMAN | abolished |

The molecules below were run on nanTp-nanE intergenic region (assay: EMSA of NanR with nanTp-nanE intergenic region). Settings: wild-type or mutant NanR.
Assay type: binding, Vibrio vulnificus
Experimental: Purified His-NanR protein was used to raise a primary polyclonal antibody by immunizing European rabbits (Oryctolagus curiculus). First, after one primary injection containing 500 μg of protein, three boosters containing 200 μg of protein was performed at 2-week intervals. Western blotting, EMSA and DNaseI footprinting assays were performed according to typical procedures known in the art.
NanR represses both nan T(PSL)AR and nanEK nagA operons by binding to an operator within the nanTp-nanE intergenic region. To examine the role of R57 and R60 residues in DNA binding, EMSA (electrophoretic gel mobility shift assays), in which the nanTp-nanE intergenic region was incubated with wild-type or mutant NanR in the absence or presence of ManNAc-6P, were performed.
The importance of K188 and K199 residues on all to binding of NanR to DNA was assessed by EMSA. […] Furthermore, the mutants were much more susceptible to ManNAc-6P than wild-type NanR (FIG. 10). […] The transcriptional control region of nan operon interacts with the dimer via the positively charged residues in this space (FIGS. 7b and 7c).

| Molecule | DNA binding in EMSA |
| --- | --- |
| K188L (protein) MGSPKNLLVRLRSNMEPFSKKLRVVADYILENAHDVQFQTITDLARNTQTSEATVVRLCRDMGYKGYSDFRMALAVDLSQTESRQQNHIEGDICDVSAQSAVDSLQDTAKLIDRKSLARIVERVHQAEFIGCIGVGASSIVGRYLAYRLIRIGKKAIMFEDTHLAAMSASRSSQGDLWFAVSSSGSTLEVIHAAGLAYKRDIPVVSLTNINHSPLSSLSTEMLVAARPEGPLTGGAFASKVGALLLVDVLVNSLLESYPEYKDSVQETAEVVIPLMAN | not as conspicuous as that of wild-type NanR |
| K188A (protein) MGSPKNLLVRLRSNMEPFSKKLRVVADYILENAHDVQFQTITDLARNTQTSEATVVRLCRDMGYKGYSDFRMALAVDLSQTESRQQNHIEGDICDVSAQSAVDSLQDTAKLIDRKSLARIVERVHQAEFIGCIGVGASSIVGRYLAYRLIRIGKKAIMFEDTHLAAMSASRSSQGDLWFAVSSSGSTAEVIHAAGLAYKRDIPVVSLTNINHSPLSSLSTEMLVAARPEGPLTGGAFASKVGALLLVDVLVNSLLESYPEYKDSVQETAEVVIPLMAN | not as conspicuous as that of wild-type NanR |
